{
  "source": "the DeepSol protein solubility set",
  "data": [
    {"experiment": "soluble on expression in E. coli; label from the status in PepcDB or PDB records", "values": [
      {"sequence": "MSLNIFNSVKKAEIHVHLEATITPDLCKKFAKRNNHEIPEEMFGSEYAYQWDDFYDFIKKYDIVTSVIHTPEDYFELTYEYLKDCAANNVLYVEAMISSTHAKEKGMTYNSFIEGVYEASKKAEEDFGIVSRYIMNGIRHLGPESVQGTAEEVLNNPHPCLVGFGLAGDELHFPPNLFVETFDMLKKENFPITVHAGEWDGPVNIRNAINLLHPTRLGHGVRSIEDPDLVKEIIDKDIILETCPTSNVATKIYKDYIDHPVKTLFDQGVKVTVNSDDPPFFKCTINGEYKVMEDLGEGHHHHHH", "soluble on expression in E. coli": "soluble"},
      {"sequence": "MSSLNKLAIDQLNLAGKRVLIRVDFNVPLKDGKITNNQRIAAAVPTIQHALSNGAKSVVLMSHLGRPDGRRQDKYTLKPVAEELKALLKKDVLFLDDCVGSEVEAACADPAPGSVILLENLRYHLEEEGKGVDASGAKVKADSAAVKKFRESLTKLGDIYVNDAFGTAHRAHSSMVGVEHSQRASGFLLKNELSYFSKALDNPARPFLAILGGAKVADKIQLIKNLLDKVNEMIIGGGMAYTFLKVAQGVKIGNSLYDEEGAKIVNELLEAAKAKGVQIHLPVDFVIADKFAEDATSKTVTAEEGVPDGHMGLDVGPESSKIFAAAIQRAKTIVWNGPAGVFEFDKFATGTKSLMDEVVKATAAGAITIIGGGDTATAAKKYNTEDKVSHVSTGGGASLELLEGKVLPGVDALSPAQ", "soluble on expression in E. coli": "soluble"},
      {"sequence": "GPGSMSSIPVDVLNAVTQCNEKVTAVEKEIEEFTNQVRIDFRSKIEPLFDKRHLELEKIEGFWGSAFVAVESPLMGLLNGTIDPKIVRALTDFRVKTSVRDGSICRCVSVTFRPNMFVKEGTFSRELDPSVNTLSLQPILWKPGTEKARTDSLFRFFSPECKDIEFLERALTEFDELFQNPLLAFE", "soluble on expression in E. coli": "not soluble"},
      {"sequence": "MQDEKNFMSGVKENLDVLFTKLEKFLRTETVIGQPIKVGETTLIPIVTVMFGCGTGGGVGDNKGIKGQGGGLGTGARISPDAVLVIKNDDVQMLPVKKGANLSKLIEMVPEIVSKIKIDKENKEKEEVKKEENLEHHHHHH", "soluble on expression in E. coli": "soluble"},
      {"sequence": "MAHHHHHHMGDNGGMVLFKAIAGAIEDGEDKLEYLNLEVNELGEKTAKAMQRVLSSSTALKTLRLSYNSFGGASKYIMEGLAENKYLRSLFLSFCEIREADGAAIGTALTANSTLQHLDLSNNKLKDAGSKCIAEAMKTNEGLISLNLSCNKIADDGGKAIALFLTSNRTLRELNLRRNCMSNATGELLDDQLRGNMTLEKMNVGFNDFRYKSLIGHRTTLARNAEKNKSLIVPKLRAEIEGLSFKERDLSQAEDEIEMERRIIKDRSEQLLRRNEEARVASEKARREIADLEKNLAAVRVRFESAEEVLLRTEERVSNEMAEISGRKANMEARVQQEREKVDRLQREMDRVRRQLKQLEEAEASRLKPLFLEFGIAEADRDREAKECQYEADKLAALELQRKELEKKLGLSLPVAGGVSAPTAKKRK", "soluble on expression in E. coli": "not soluble"},
      {"sequence": "MAHHHHHHMLAPTVTREACQPIINAFRCAAEKGQTQTDVDAESWGREVTRINAEAQKAWSEQRKPFIPAMYLRRRDPAAEEALRLLRVTSKAFELNLRFREIEKLDEMHAKLWALLSADKTRLTITIIEYMEILKKFKAWQEERFEGTPKASPQREASVQSSQECLDDTTPLGSVVYLASVMQPRPSLQLYLSCPRSPAGGVEVVHIYQRFAKQVSLVKCEAELIMWDTNNDGCLTEDEMESYVRDLVPRIEALRDITEDILPFYCCTVSRRIFWVLDPGSRGAIRIDMLLQNPVMDEWVSLQLMREDQPRNWFSAAITSHLYDKFLLLDTRNRGTLNADDMKRYKKGLPTVMDDGLPPGVGPLSSLFIDRFFETNVMMANSELDFRKFVDFVVAVEFLPSCQRPLFFWNILDIEGCGYLKPVHVNYFFRETHTKLVAAGLEVPSRETVVQEAFDLISTAEPLCISREEFINAPQAGLFVALLVDCLSFWTYENREQR", "soluble on expression in E. coli": "not soluble"},
      {"sequence": "MRIAVASGKGGTGKTTVAVNLAVFNHIDLFDLDVEEPNDRIFIKGEAEEWPAYRKVPEVRENCNACGVCKDVCQYSAIYVIDKAYPLPELCHSCGACIYLCPEKAMEEVDYQTGKIVRVKSDITLTYGEMRIGEASAVFLIKQVKELMGKNAIIDSPPGASCPMVESVSDADYVILVAEPTPFGLHDLKIAAEVVSDLGLKFGVVVNKHGLPFDGIERYCKEGGVEILGKIPFSKEIAEKYSRGELLHDMKDFFVQLYEGIALEHHHHHH", "soluble on expression in E. coli": "soluble"},
      {"sequence": "MGSDKIHHHHHHMRIGFLSHAGASIYHFRMPIIKALKDRKDEVFVIVPQDEYTQKLRDLGLKVIVYEFSRASLNPFVVLKNFFYLAKVLKNLNLDFIQSAAHKSNTFGILAAKWAKIPYRFALVEGLGSFYIDQGFKANLVRFVINSLYKLSFKFAHQFIFVNESNAEFMRNLGLKENKICVIKSVGINLKKFFPIYVESEKKELFWKNLNIDKKPIVLMIARALWHKGVKEFYESATMLKDKANFVLVGGRDENPSCASLEFLNSGAVHYLGARSDIVELLQNCDIFVLPSYKEGFPVSVLEAKACGKAIVVSDCEGCVEAISNAYDGLWAKTKNAKDLSEKISLLLEDEKLRLNLAKNAAQDALQYDENIIAQRYLKLYDRVIKNV", "soluble on expression in E. coli": "not soluble"},
      {"sequence": "MGSDKIHHHHHHMLKSCPMNPRLDALHPYPFEKLRALLADAGKPTHDLPPINLSIGEPKHAAPACVGQAIAANLAGLSVYPSTKGEPALRQAISQWLSRRYSIPAPDPESEVLPVLGSREALFAFAQTVIDPSAGALVVCPNPFYQIYEGAALLAGATPYYVNADPARDFGCDWARVPDEVWRRTQLVFVCSPGNPAGNVMSLEEWRTLFELSDRHGFVIAADECYSEIYLDEDNPPLGSLQAARRLGRDRYTNLVAFSSLSKRSNVPGMRSGFVAGDAALLARFLLYRTYHGSAMSPVVSAASIAAWSDETHVQENRRQYRAKFEAVLPILQNVLDVRAPQASFYLWAGTPGSDTAFARELYGRTGVTVLPGSLLAREAHNANPGQGRIRIALVAPLDQCVQAAERIAHFARTSI", "soluble on expression in E. coli": "not soluble"},
      {"sequence": "MGSDKIHHHHHHMESLSEGTTAGYQQIHDGIIHLVDSARTETVRSVNALMTATYQEIGRRIVEFEQGGEARAAYGAQLIKRLSKDLCLRYKRGFSAKNLRQMRLFYLFFQHVEIHQTMSGELTPLGIPQTPSAEFPSAKIWQTLSAKSFPLPRSTYVRLLSVKNADARSFYEKETLRCGWSVRQLERQIATQFYERTLLSHDKSAMLQQHAPAETHILPQQAIRDPFVLEFLELKDEYSESDFEEALINHLMDFMLELGDDFAFVGRQRRLRIDDNWFRVDLLFFHRRLRCLLIVDLKVGKFSYSDAGQMNMYLNYAKEHWTLPDENPPIGLVLCAEKGAGEAHYALAGLPNTVLASEYKMQLPDEKRLADELVRTQAVLEEGYRRR", "soluble on expression in E. coli": "not soluble"},
      {"sequence": "MSQPCPCGSADEYSLCCGRIVSGERVAPDPSHLMRSRYCAFVMKDADYLIKSWHPTCNAAAFRDDIIAGFANTRWLGLTIFEHTWSEAENTGYVSFIARFSEQGKNGAIIERSRFIKENGQWYYIDGTRPQLGRNDPCPCGSGKKFKKCCGQ", "soluble on expression in E. coli": "not soluble"},
      {"sequence": "MEEKPKYKRILLKLSGEAFAGEQGYGIDPAFLEYISHEIKNVYDLGVQVAIVIGGGNIFRGFQGKEIGVDRATADYMGMLATVINALALQSALENHVNIPTRVLSAIEMRQVAEPYIRRRAIRHLEKGRIVIFAGGTGNPFFSTDTAAALRAAEIGAEVLIKATKVGGIYDKDPEKYPDAVLIKEISYLEVINMGLKVMDHTALTLCKENEIPIIVLNVKEKGNLRRAVLGEEVGSVVRGLEHHHHHH", "soluble on expression in E. coli": "not soluble"},
      {"sequence": "MSVTFPSSGCPSFFNIFYEEGIVMKLTIYYDGQFWVGVVEVVDNGKLRAFRHLFGKEPRDSEVLEFVHNQLLNMMAQAEQEGVRLQGRRQKKINPKRLQRQVSKELKNAGVTSKAQEAIKLELEARKQKKKQIMKEQREHVKEQRYMLKKQKAKKKHRGKLEHHHHHH", "soluble on expression in E. coli": "soluble"},
      {"sequence": "MIGKLKKGSSFGGCIRYVTGKDEAKIIASDGVLLGTNAEITQSFELQRQLNPRIKKPVGHIALSFKPEDKPRLTDEFMTKIAIEYMQMMGITKTQFIIIRHHNADNPHCHIVYNRINNESKLISDRNDYRRNEQVTKALKSKYGLTYGTDKSNTNTRKLRNAERAKYEIHNAVKDALKMADSWEKLRSELAKRGVHLEFVYKDKAQTKVQGIRFCKDGYSFKGTQICREYSFGKLNAKFEGTENHVSTRANSAQQYEQGCRKNEQVPFMSENCQDPWDGISSIGLFASANAQTFESFPEDESAKKKKKKRRRGFSL", "soluble on expression in E. coli": "not soluble"},
      {"sequence": "MPSIYITGVDPTIVKIHEIQGTGTASPLVNNVVTIEAIVVGDFQDGDGDISRNLRGFYVQEEDADVDGNVATSEGIFIFENGNFITDVNVGDKVQITGTVDEFFGETQIDTITNITVISSGNTLPTAANITLPTAGTTESQGGTPQPDLEAFEGMLVKFTDTLTITEMFNLDRFNEIKLSQGGRPQQFTQFNDANVAGYGAYREEIGARTITYDDGLSVQNAEISNLDGFGSSFSTASDIRMGDTINNLTGVLSYQWAGNASSGATWRVRSAVDGTNQFTKVNDRPVTPENVGGSLKVTGFNVLNYFKTIDLEHHHHHH", "soluble on expression in E. coli": "not soluble"},
      {"sequence": "MISRVAQMYFSEHKRQAEIAQHLNLSQATVSRMLKRAEAEGIVRTSIIPPPGTYSDLEAQLRERFDLPEAIVVDCSEDRDGAIMARIGEAAAHFLEVTLSQNEIIGVSSWSQTIFKMVENIHPLKGAKARYIVQTLGGMGDPSVQTHATQITTRLARLTEAEPKLLPVPGVATSREAKLLMLADPFVRETIDLFGSITLAIVGVGAVEPSELLARSGNIFSTKELADLAQAGAVGDISLRFFDKDGKPVKTPLDDRVIGLPLENLSNVDRVIALAGGLKKTEAIAGALRTGVIDVLVTDKFTAERLVGQET", "soluble on expression in E. coli": "not soluble"},
      {"sequence": "GAMKNSFDRLIDGLAKDYGMPGFPEKKHEHEVYCFEFKEVSIRIYQDKFKWVYFLSDIGVIDNLDSNACQSLLRLNEFNLRTPFFTVGLNEKKDGVVHTRIPLLNLDNVEMRRVFEALLNLSGEVKKTFGFV", "soluble on expression in E. coli": "soluble"},
      {"sequence": "IKKPMSASALFVQDHRPQFLIENPKTSLEDATLQIEELWKTLSEEEKLKYEEKATKDLERYNSQMKRAIEQESQMSLKD", "soluble on expression in E. coli": "soluble"},
      {"sequence": "MVITLPKLKYALNALSPHISEETLNFHYNKHHAGYVNKLNTLIKDTPFAEKSLLDIVKESSGAIFNNAAQIWNHTFYWDSMGPDCGGEPHGEIKEKIQEDFGSFNNFKEQFSNILCGHFGSGWGWLALNNNNKLVILQTHDAGNPIKDNTGIPILTCDIWEHAYYIDYRNDRASYVKAWWNLVNWNFANENLKKAMQKLEHHHHHH", "soluble on expression in E. coli": "soluble"},
      {"sequence": "MGSDKIHHHHHHMEEIKFPTNESGLCMNEKGVPWEDLKIVQAIADSGSLAGAGRTLGISHATVFRRLGALESRLGVRLFERHRTGYVPTLAGDDLATTAARVALDIEAVERRLMGRDARLSGTLRVTTTDTLLMGMLSDELAGFQRTYPHIVLEVEVSNRTYDLSRRDADVAIRPTSAPPETLIGRQVGQIAQAVYVSRCHRETSGWVGPDPHLGYPVLERWMARQGVDAQCRYHVDSMLGMLAGVRSGMGRGVLPCYLADMADDLVRASEPLPELQTELWLLTHPDLRNTARVQALFAYLSDSLKARQASLLGTMAAS", "soluble on expression in E. coli": "not soluble"},
      {"sequence": "MGSDKIHHHHHHMSKAPDFEGLAMFAKVAEERSFAAAARVLGLSVATVSRGVSRLEERLGARLFNRTSRRLALTDFGHRLAERASRLYRDAEDAENAARELSASPRGLVRLAVPMSFGLRWVAPLLPDFFKLYPDVSIDMHLSDAVVDLIGEGFDAALRIAVLPDSSLVARRLCSIAPFIVAAPSYLARHGRPSTPRDLDAHHCLGYAYRPRQDVWHFSNAAGDEEVVTPSGPLRVTNSDALVPTVLAGIAIAELPEFIASEYLADGRLQAILTDWTLPRGALYFVTPSARARPAKVEAVAGFMAAHLSRPSWQPINP", "soluble on expression in E. coli": "not soluble"}
    ]}
  ]
}
